# Results from the supplement of paper PMC12042874.
# ± gives the uncertainty stated by the source.
# Assay: amyloid nucleation score (Sup35N fusion, yeast selection) (log enrichment); library NNK3; higher = more nucleation; inactive = no reads after selection
# Method in brief: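 Random libraries were run with three technical output replicates. In each, psi-negative yeast expressing Sup35N fused to peptides of 20 random codons were induced 24 hours with 100 μM copper sulfate and grown 7 days at 30°C on medium lacking adenine and uracil, and input and output plasmid inserts were Illumina-sequenced. The nucleation score is the DiMSum log enrichment of output over input reads, centred on the mode score of non-aggregating sequences, and sequences under 100 input reads were excluded.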
row,Substance,amyloid nucleation score
1,CLMPLSDN,inactive
2,SISWRYATTSDVSLWIFVQT,inactive
3,TWNGMWFVLSSL,inactive
4,RKVIPCH,inactive
5,MFFVRNFCQYVSRRC,1.83 ± 0.088
6,SYAANGVWRSYDLCYQCQKV,-0.712 ± 1.1
7,YVEMYN,inactive
8,NRSTGVKSQGIDFLLSCFLV,inactive
9,CDNYVLPNYRYLSGFFKFGL,inactive
10,GVPLQWSSHAWGFFCWKTPW,inactive
11,TLLPAVQIWHDIKHSTRTSW,inactive
12,NPCHCQRRINFVL,inactive
13,SRYQMGYKCFMSWHHTGHFN,inactive
14,VTLTLEGLDRWVNQSEIAPS,0.071 ± 0.29
15,GLALNWLCG,0.026 ± 0.43
16,MCSGAAFMRRVC,inactive
17,CNDFNSYVRCYIMSNNFFRY,inactive
18,TKSYSMVSPIRVLNTDLIY,inactive
19,TGLLYFRFDCGSSIIRSRYY,0.875 ± 0.1
20,LCPRRMA,0.592 ± 0.29
21,FCLVFSELILFCVCSWVNST,inactive
22,AMIMSFFWRKVT,inactive
23,CRYNVIYWGIDSCYHMWSWR,inactive
24,NSKNFIMSISRLGYLASF,inactive

row,Substance,amyloid nucleation score
1,HSVSLNYLGIR,inactive
2,IKATWRSFMCVIFNLLLLP,-0.184 ± 1.3
3,WLWKVSFK,1.41 ± 0.093
4,HFKVFT,inactive
5,DFSNILLGTNQNNAVSAGSG,inactive
6,ESAYFLAYLQVLLWRVMGEL,inactive
7,NSDLIRVNRSVMYAKETCEV,inactive
8,CYMFRDDRIVYHDGLNRHCK,inactive
9,FFGKAT,inactive
10,YFLICIQVHKSMRNCPFYVS,inactive
11,VTWIYSSNGVWINGDKSFML,1.22 ± 0.079
12,SSRRPWIIGSMST,inactive
13,SSLGNSLVMYVVCAWVN,0.273 ± 0.37
14,RKKRY,inactive
15,FLHVRLRHSWVV,inactive
16,NDNIDPTRVIQ,inactive
17,TGVWLRACSYEGEFGEDRKL,inactive
18,MFRTRTNNHDSVGRYLVTMN,inactive
19,IDPQS,inactive
20,VYSLMGS,inactive
21,RLNIYLWGVGLTRDVIYPPS,1.66 ± 0.1
22,GTFLIFDKFKLS,inactive
23,VRAMCLPHV,inactive
24,DGGYFGNSWFIHGDSLFQMG,inactive

row,Substance,amyloid nucleation score
1,NKHMGKQLAIAMAVRCAYSG,0.326 ± 0.33
2,HFCLEYTLNVTMHAWTL,inactive
3,IIRMMFISFN,1.84 ± 0.076
4,FKEWVFCMYECE,inactive
5,WLLPQKGLMG,inactive
6,VSIIVRYQL,1.93 ± 0.096
7,IYVRLMSFH,0.452 ± 0.15
8,PSSRT,inactive
9,HELDSTTLCVFKPFPFHANL,inactive
10,SGLSDPPPLLE,inactive
11,VMFFDIKIMARFWTPNEL,inactive
12,FARKWCVKNGYGSRTSASFM,inactive
13,YRLRNCFRHMPAAQTFTP,inactive
14,FVHDFTFEGKSMVVRLNCSA,inactive
15,DFDFQIYC,0.507 ± 0.25
16,KDELCH,1.81 ± 0.11
17,RPRALRQTLFDRYL,0.872 ± 0.13
18,AFSIYHRIIIMRFRKYNIFA,inactive
19,DLLWLLFGLTSDLQFFIRYK,inactive
20,FQNLAYMITAAPASGKKTSR,inactive
21,KGFNSALLMWVLYINKQ,inactive
22,WGFLQLHEPS,inactive
23,RLEFKESRMGLLVLGDN,inactive
24,KFDGLYNSFTVMNFAIMVYE,1.65 ± 0.12

row,Substance,amyloid nucleation score
1,VFEDNDLCELINDVILEHHR,inactive
2,MHFRWQTFYSDN,inactive
3,YFSSSWGMLKCGFAVFDHLT,inactive
4,YLMVNICMNDPWVYEMVSLY,0.902 ± 0.2
5,NLRKKWFWAYNPSYETSPLV,inactive
6,LLFTCQSDKDYVRFFVQFNW,inactive
7,SCFKDDCVGLLYYQSWSNDS,0.501 ± 0.33
8,VLPRRTLACIKRTNKASETV,inactive
9,HWCRQNNSIFMRS,inactive
10,KWVFWSIYVPFTCKFNMVNR,inactive
11,NRNATSCGKPAFNKWNYFCQ,inactive
12,SNSMPSGNSRMVCCRDPSFP,inactive
13,EYIAFISTIPDMSLFSDVLF,0.653 ± 0.11
14,LYFACPTLYLFRRRVNVTHP,inactive
15,CNIISQTRGHEISQCGSWMW,inactive
16,NVPLKWLTWYNRRAATWVEM,inactive
17,MVFEKGFSTNNRHGGHLDEQ,inactive
18,VIKTTNNQ,1.09 ± 0.11
19,KKVNDML,inactive
20,RVVNRFRNCWK,0.717 ± 0.19
21,SCSFRVYYFRLYFMLRSGSV,-0.743 ± 0.82
22,SLISSALDIISDRYGLHVNN,inactive
23,SVMYVQNFPYLLSYWRSFIG,inactive
24,RPWPYSYTNWDLCWLMAMPN,inactive

row,Substance,amyloid nucleation score
1,WAVYVGVL,inactive
2,RYLNVVPLLPCYMIWFPRVS,inactive
3,RSVGYRTAVMRHLYIMMN,inactive
4,MLSISFLYFATTVGVDVTLG,inactive
5,FRVTMMSACRLDSIGLDCSC,1.25 ± 0.086
6,NMGALIRSRQVEVSHKRVSG,inactive
7,SNLVGCKLIHV,inactive
8,FVNQFLQKFMNLDKYIKLSH,inactive
9,NLNGFYSRGVIFR,inactive
10,CFSELIYMLLNVDGNFSLRV,inactive
11,TKASKMTKQIF,inactive
12,YPPWWFYIRNWLISEEE,inactive
13,NINRSPWLIGWGLPKLKRDH,inactive
14,GTIRQS,inactive
15,WFCVLMDSAWDCRVIGGGGR,1.1 ± 0.13
16,IIMISLITYFLSLNTSKLYQ,inactive
17,LSTSL,inactive
18,HQARIYVSYYPVLSFDPFRK,2.06 ± 0.074
19,VPSPTFIHVARRSRYHYASR,inactive
20,PNQYWQ,inactive
21,SYSADLKLMIWSCLNLVVFQ,inactive
22,YWCLYLNSNCKMW,0.31 ± 0.44
23,GRLCYNSTNYLRHAASCLSM,inactive
24,SSFFMRIVCMFYLIRKVMKC,inactive
